The record followed here is PMC4652764, “The La-related protein 1-specific domain repurposes HEAT-like repeats to directly bind a 5′TOP sequence”.

Data set [1] concerns the target T1, LARP1 DM15 region (human, UniProt Q6PKG0 873-1023). Kind of data set: EMSA; EMSA: 20 mM Tris-HCl pH 8, 150 mM NaCl, 10% glycerol, 1 mM DTT, 0.5 ug tRNA, 1 ug BSA, <2 nM RNA, 30 min on ice, native 0.5x TBE gel at 4 C. The following applies: protein: recombinant; tags: His6-MBP removed by TEV; glycine linker remnant; label: 5'-32P. A general note: A gel shift assay detects complexes by their altered migration in electrophoresis.

In data set [2] the target is T1, LARP1 DM15 region. Put plainly: EMSA; no specific binding; EMSA: 20 mM Tris-HCl pH 8, 150 mM NaCl, 10% glycerol, 1 mM DTT, 0.5 ug tRNA, 1 ug BSA, <2 nM RNA, 30 min on ice, native 0.5x TBE gel at 4 C. To be noted: protein: recombinant; tags: His6-MBP removed by TEV; glycine linker remnant; label: 5'-32P.
Data set [3] deals with T1, LARP1 DM15 region. Kind of data set: EMSA; tRNA and BSA competitors; ~500 nM when corrected for active protein; EMSA: 20 mM Tris-HCl pH 8, 150 mM NaCl, 10% glycerol, 1 mM DTT, 0.5 ug tRNA, 1 ug BSA, <2 nM RNA, 30 min on ice, native 0.5x TBE gel at 4 C. The following applies: protein: recombinant; tags: His6-MBP removed by TEV; glycine linker remnant; label: 5'-32P (EMSA, probing).

Data set [4] addresses T1, LARP1 DM15 region. Kind of data set: EMSA; up to 30 uM protein; EMSA: 20 mM Tris-HCl pH 8, 150 mM NaCl, 10% glycerol, 1 mM DTT, 0.5 ug tRNA, 1 ug BSA, <2 nM RNA, 30 min on ice, native 0.5x TBE gel at 4 C. The following applies: protein: recombinant; tags: His6-MBP removed by TEV; glycine linker remnant; label: 5'-32P.
In data set [5] the target is T1, LARP1 DM15 region. Kind of data set: EMSA; two concentration-dependent complexes; EMSA: 20 mM Tris-HCl pH 8, 150 mM NaCl, 10% glycerol, 1 mM DTT, 0.5 ug tRNA, 1 ug BSA, <2 nM RNA, 30 min on ice, native 0.5x TBE gel at 4 C. To be noted: protein: recombinant; tags: His6-MBP removed by TEV; glycine linker remnant; label: 5'-32P.

Take CCCCUUCUCCCCGGCGGUUA (ssRNA) [PABPC1 5'TOP 20mer]: the binding result in data set [1] is given as “no binding”.

On to CCUCUUUUCCG (ssRNA) [RPS6 first 11 nt], for which the binding result in data set [1] was “no binding”.

In the case of CACUUCUGCCGCCCCU (ssRNA) [RPL13A 5'TOP 16mer], in data set [1], the binding result is recorded as “no binding”.

As to AAAAAAAAAAAAAAAA (ssRNA) [A16], in data set [2], the binding result is “no binding”.

The Kd is the constant that tells how readily two partners part at equilibrium. For CCUCUUUUCCGUGGCGCCUC (ssRNA) [RPS6-20mer], in data set [3], the Kd worked out at 776 ± 26 nM.

Turning to GUGGCGCCUCGGAGGCGUUCAGCUGCUUCAAG (ssRNA) [RPS6 deltaTOP], in data set [4], the binding result is recorded as “no binding”.

Turning to CCUCUUUUCCGUGGCGCCUCGGAGGCGUUCAGCUGCUUCAAG (ssRNA) [RPS6-42mer], the binding result in data set [5] is reported as “binds”.

Turning to CCUCUUUU (ssRNA) [RPS6 first 8 nt], the binding result in data set [1] is reported as “no binding”.

In the case of UUUUUUUUUUUUUUUU (ssRNA) [U16], the binding result in data set [2] is reported as “no binding”.
